{
  "source": "patent US8178486B2",
  "about": "“Method for promoting hair growth” (Animal Technology Institute Taiwan, priority 2005, dated 2012)",
  "molecules": {"B1": {"name": "lactoferrin (protein, UniProt P24627 20-708, looked up)", "Lactotransferrin": "APRKNVRWCTISQPEWFKCRRWQWRMKKLGAPSITCVRRAFALECIRAIAEKKADAVTLDGGMVFEAGRDPYKLRPVAAEIYGTKESPQTHYYAVAVVKKGSNFQLDQLQGRKSCHTGLGRSAGWIIPMGILRPYLSWTESLEPLQGAVAKFFSASCVPCIDRQAYPNLCQLCKGEGENQCACSSREPYFGYSGAFKCLQDGAGDVAFVKETTVFENLPEKADRDQYELLCLNNSRAPVDAFKECHLAQVPSHAVVARSVDGKEDLIWKLLSKAQEKFGKNKSRSFQLFGSPPGQRDLLFKDSALGFLRIPSKVDSALYLGSRYLTTLKNLRETAEEVKARYTRVVWCAVGPEEQKKCQQWSQQSGQNVTCATASTTDDCIVLVLKGEADALNLDGGYIYTAGKCGLVPVLAENRKSSKHSSLDCVLRPTEGYLAVAVVKKANEGLTWNSLKDKKSCHTAVDRTAGWNIPMGLIVNQTGSCAFDEFFSQSCAPGADPKSRLCALCAGDDQGLDKCVPNSKEKYYGYTGAFRCLAEDVGDVAFVKNDTVWENTNGESTADWAKNLNREDFRLLCLDGTRKPVTEAQSCHLAVAPNHAVVSRSDRAAHVKQVLLHQQALFGKNGKNCPDKFCLFKSETKNLLFNDNTECLAKLGGRPTYEEYLGTEYVTAIANLKKCSTSPLLEACAFLTR", "notes": "78-80 kDa glycoprotein; commercially obtained bovine lactoferrin applied as aqueous solution"}},
  "format_in_all_cases": "in vivo",
  "key": {"[1]": {"test_system": "hair follicles", "experiment": "Hair growth in young mice, topical application to shaved dorsal skin", "details": "2-month old male ICR mice; for time until hair growth was observed after the treatment: water control 15-17 days", "description": "To study the effect of lactoferrin in hair growth in young mice, five male ICR (outbred) mice, each 2 months old, were shaved to expose a portion of dorsal skin. For each treated mouse, the exposed portion of dorsal skin was further marked with three areas as illustrated in FIG. 1A to be subsequently administered different treatments. Referring to FIG. 1B, the three marked areas (from left to right) were treated by spreading topically on the exposed skin areas 60 μl of bovine lactoferrin (as an aqueous solution of 100 mg/ml), 60 μl of bovine lactoferrin (of 200 mg/ml) and 60 μl of control vehicle (water), respectively, on a twice daily basis. Observation for hair growth in the marked areas was made daily after the first treatment. […] The hair growth was observed on all five mice administered 200 mg/ml of lactoferrin 2 to 4 days after the treatment.\nHematoxylin and Eosin (H&E) staining was performed to microscopically examine the skin area treated with 200 mg/ml of lactoferrin or the control vehicle for 14 days. […] Thus, the proliferation of the anagen phase hair follicles evidently reflected the hair growth observed in the lactoferrin-treated area."}, "[2]": {"test_system": "hair follicles", "experiment": "Hair growth in aged mice, topical application to shaved dorsal skin", "details": "11-month old male ICR mice; for time until hair began to grow on the treated areas after the treatment: water control 21-23 days", "description": "To further test whether lactoferrin could induce hair growth in aged mice, five male ICR mice, each 11 months old, were similarly shaved and marked with three areas of the exposed dorsal skin as described in Example 1. The marked areas of the mice were applied by spreading topically on the exposed skin areas 60 μl of aqueous solutions of bovine lactoferrin (100 mg/ml), 60 μl of bovine lactoferrin (200 mg/ml) and 60 μl of control vehicle (water) twice a day. Observation for hair growth in the marked areas was made daily after the first treatment. […] In general, the mice treated with 200 mg/ml of lactoferrin began to grow hair on the treated areas 4-6 days after the treatment. […] Spontaneous hair growth in the control area was only observed 21-23 days after the treatment. The hair growth-promoting effect of lactoferrin was consistently observed in all tested mice.\nThe H&E staining method was performed in a manner similar to Example 1 to examine the skin area treated with 200 mg/ml of lactoferrin or the control vehicle for 14 days. […] Thus, the hair follicles are clearly activated or triggered to re-enter from the telogen-phase to the anagen-phase. The activation of the hair follicles also reflects the hair growth observed in the lactoferrin-treated area."}, "[3]": {"test_system": "hair follicles", "experiment": "Hair growth in 4-month old female mice, topical application to shaved dorsal skin", "details": "60 μl of 200 mg/ml topically twice daily, after 10 days, not seen with control vehicle", "description": "The marked areas of the mice were applied by spreading topically on the exposed skin areas 60 μl of aqueous solutions of bovine lactoferrin (200 mg/ml), 60 μl of control vehicle (water), and 60 μl of bovine lactoferricin, obtained as set forth in Example 3, (200 mg/ml) twice daily. Observation for hair growth in the marked areas is made daily after the first treatment. […] The hair growth-promoting effect of lactoferrin or lactoferricin was consistently observed in all tested mice. Although lactoferricin was prepared by the method described in Example 3 above, the present invention should not be limited to use only lactoferricin prepared in such manner. Lactoferricin prepared by other methods would still fall within the scope of the present invention."}, "[4]": {"details": "200 mg/ml, 14 days of treatment, H&E histology"}},
  "data": [
    {"molecule": "B1", "values": [
      {"measurement": "number of anagen phase hair follicles relative to control vehicle-treated area", "setting": "[1]; [4]", "result": "approximately two-fold"},
      {"measurement": "skin thickness versus control vehicle-treated skin", "setting": "[1]; [4]", "result": "no significant difference"},
      {"measurement": "time until hair growth was observed after the treatment", "setting": "[1]; 60 μl of 100 mg/ml aqueous solution topically twice daily", "result": "3 to 5", "unit": "days"},
      {"measurement": "time until hair growth was observed after the treatment", "setting": "[1]; 60 μl of 200 mg/ml aqueous solution topically twice daily", "result": "2 to 4", "unit": "days"},
      {"measurement": "speed of hair growth versus control vehicle-treated skin", "setting": "[1]; lactoferrin-treated skin (100 and 200 mg/ml), twice daily", "result": "more rapid hair growth"},
      {"measurement": "subcutaneous fat and skin thickness versus control area", "setting": "[2]; 200 mg/ml, 14 days, H&E", "result": "increased subcutaneous fat and increased thickness of skin"},
      {"measurement": "hair follicle phase in histological examination", "setting": "[2]; 200 mg/ml, 14 days, H&E, control area uniform telogen-phase follicles", "result": "a large number of anagen-phase (actively growing stage) hair follicles"},
      {"measurement": "hair growth observed in the treated skin area", "setting": "[2]; 200 mg/ml, after 11 days of treatment, not seen with control vehicle", "result": "prominent hair growth"},
      {"measurement": "time until hair began to grow on the treated areas after the treatment", "setting": "[2]; 60 μl of 100 mg/ml topically twice a day", "result": "6 to 8", "unit": "days"},
      {"measurement": "time until hair began to grow on the treated areas after the treatment", "setting": "[2]; 60 μl of 200 mg/ml topically twice a day", "result": "4 to 6", "unit": "days"},
      {"measurement": "inflammation and morphological abnormalities of the treated skin", "setting": "[2]; topical lactoferrin twice a day", "result": "no inflammation and morphological abnormalities"},
      {"measurement": "hair growth observed in the treated skin area", "setting": "[3]", "result": "prominent hair growth"}
    ]}
  ]
}
